From publication PMC12754631, “Cis‐2‐decenoic acid modulates Pseudomonas aeruginosa virulence through a noncanonical transcriptional regulator” (mLife, 2025)

Assays:
[1] = target: T1, FadD1 (Pseudomonas aeruginosa PAO1) (UniProt Q9HYU4); assay: EMSA
T1 sequence: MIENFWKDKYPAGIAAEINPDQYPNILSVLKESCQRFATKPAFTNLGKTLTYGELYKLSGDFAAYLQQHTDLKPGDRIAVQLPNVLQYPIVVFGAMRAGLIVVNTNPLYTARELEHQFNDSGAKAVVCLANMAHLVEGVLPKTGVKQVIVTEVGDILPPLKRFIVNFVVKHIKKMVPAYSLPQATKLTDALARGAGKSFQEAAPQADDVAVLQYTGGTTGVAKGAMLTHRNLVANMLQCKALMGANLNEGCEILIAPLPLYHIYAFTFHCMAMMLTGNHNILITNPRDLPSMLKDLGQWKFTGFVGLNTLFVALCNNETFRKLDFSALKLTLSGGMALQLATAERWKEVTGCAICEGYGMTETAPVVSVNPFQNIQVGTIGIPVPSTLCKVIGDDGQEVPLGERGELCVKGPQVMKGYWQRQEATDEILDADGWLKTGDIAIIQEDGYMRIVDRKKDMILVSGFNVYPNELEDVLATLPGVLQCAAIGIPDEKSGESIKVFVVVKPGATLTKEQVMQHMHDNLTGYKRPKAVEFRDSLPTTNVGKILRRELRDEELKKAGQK

FadD1 = target: T2, FadD1 (Pseudomonas aeruginosa, UniProt Q9HYU4); assay: microscale thermophoresis; assay type: binding
T2 construct: expressed in E. coli BL21, Ni-NTA, His-tag removed by TEV protease; labelled for MST

Compound | binding [1] | Kd (FadD1) [nM]
ATCTCATGCAGATGCCGGAGTTCTCCCTGAACTTCGCCTTGTTGCATACATGGCAAGCGCGCCATGGCGGAGCGCGACGGCTGAATATCTAGCACGAAAGTGAAAATAGAAAAGAACGAGATTTCATAAGGGCGGGCGCCGTTTTTAACAGGTTGTTCATGCGTCGCCGCTAGTTTGTTGTCTTTCACAGAACTGTTCGATGAACGGACTTGTTGCATTAGAACAATAAGTCCCGATGGAACTTCGGGGGACCGTGTGAAGCGTTCGCTGTTCAATTGTGCGCAC (double strand) [PA0692 promoter] | binds | –
CCCCCCC/C=C\C(=O)O [cis-DA] | – | 1060 ± 140
GTCGGCGTTTCATGGAATTGTCACAACCGCACAGTATCGCTTGCGGTAAAGCGGCCCAGGTGGTCGAACGTTGTCATAGGGAGGGGGATGCTCGATGGCTGAAGGCTGCGTCCTGAACGGTGCTGGCATAACAGATAGGGTTGCCATGATTTTGCCGTATCGGCAAGGCTGCGCGCTTGACAGCGTCATACCCCGGGCCAATTCTGCTGTGATGCATTTTATCGATCAGGGCTTACTGCAATGAGGAATGACGGAGGCTTTTTGCTGTGG (double strand) [rhlR promoter] | no binding | –
CCCCCCCCC/C=C\C(=O)O [BDSF] | – | 1650 ± 210
GTGCGCACAATTGAACAGCGAACGCTTCACACGGTCCCCCGAAGTTCCATCGGGACTTATTGTTCTAATGCAACAAGTCCGTTCATCGAACAGTTCTGTGAAAGACAACAAACTAGCGGCGACGCATGAACAACCTGTTAAAAACGGCGCTATGAAATCTCGTTCTTTTCTATTTTCACTTTCGTGCTAGATATTCAGCCGTCGCGCTCCGCCATGGCGCGCTTGCCATGTATGCAACAAGGCGAAGTTCAGGGAGAACTCCGGCATCTGCATGAGAT (double strand) [PA0692 promoter, AGGGCGG deleted] | no binding | –
